Test results reported in the nanobody polyreactivity screen of Harvey et al. (2022).

Assay: yeast display, Sf9 membrane polyspecificity reagent, FACS + sequencing; frameworks hold sequencing errors
Method in brief: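 After 36–48 hours of galactose induction, yeast (Saccharomyces cerevisiae BJ5465) displaying a synthetic nanobody library were stained at 4 °C for 1 hour with 10% biotinylated, detergent-solubilized Sf9 membrane reagent. Streptavidin microbeads enriched the stained cells before FACS sorting into low and high (top ~1%) gates on anti-HA and streptavidin fluorescence. Each clone's polyreactivity label reflects its gate of origin.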

| Sequence | polyreactivity (PSR sort gate) |
| --- | --- |
| QVQLVESGGGLVQAGGSLRLSCAASGITFPINTMGWYRQAPGKERELVAGIDWTGGSTYYADSVKGRFTISRDNAKIPVYLLMNSLKPEHTAVYYCAKTRRRLLTRYDYWGQGTQVTVSS | low polyreactivity |
| QVQLVESGGGLVQAGGSLRLSCAASGITFPLYAMGWYRQAPGKERELVAAISRRGGRTYADSVKGRFTISRDNAKNTVYLQMNSLKPEDTAVYYCAAKGYSYSRDFYSWGQGTQVTVSS | high polyreactivity |
| QVQLVESGGGLVQAGGSLRLSCAASGITFPRYVMGWYRQAPGKERELVAAISTSGGSTYYADSVKGRFTISRDNAKNTVYLQMNSLKPEDTAVYYCAALDIYSSTYPVEYDYWGQGTQVTVSS | high polyreactivity |
| QVQLVESGGGLVQAGGSLRLSCAASGITFPSYAMGWYRQAPGKERELVATISRGDSTYYADSVKGRFTISRDNAKNTVYLQMNSLKPEDTAVYYCATRAYRLDPLQHDYWGQGTQVTVSS | low polyreactivity |
| QVQLVESGGGLVQAGGSLRLSCAASGITFPVYAMGWYRQAPGKERELVATITSSGGRTYYADSVKGRFTISRDNAKNTVYLQMNSLKPEDTAVYYCAARPPYIRTLYYWGQGTQVTVSS | high polyreactivity |
| QVQLVESGGGLVQAGGSLRLSCAASGITFPYYAMGWYRQAPGKERELVAAINGNGGRTYYADSVKGRFTISRDNAKNNVYLDMNSLKPEDTAVYYCADRVVHVKGPRMDYWGQGTQVTLSS | high polyreactivity |
| QVQLVESGGGLVQAGGSLRLSCAASGITFPYYAMGWYRQAPGKERELVAAISAGGTRTYYADSVKGRFTISRDNAKNTVYLQMNSLKPEDTAVYYCAARVWPIVQNYYWGQGTQVTVSS | high polyreactivity |
| QVQLVESGGGLVQAGGSLRLSCAASGITFQGNAMGWYRQAPGKEREFVAAISWSGDSTYYADSVKGRFTISRDNAKNTVYLQMNSLKPEDTAVYYCAASRVIPSYPYYKYDYWGQGTQVTVSS | low polyreactivity |
| QVQLVESGGGLVQAGGSLRLSCAASGITFQKYVMGWYRQAPGKEREFVAAITARGGTTYYADSVKGRFTISRDNAKNTVYLQMNSLKPEDTAVYYCAADLRRFQSYYYWGQGTQVTVSS | high polyreactivity |
| QVQLVESGGGLVQAGGSLRLSCAASGITFQRYAMGWYRQAPGKERELVAAITRGGSTNYADSVKGRFTISRDNAKNTVYLQMNSLKPEDTAVYYCAAGARYGYGYWGQGTQVTVSS | high polyreactivity |
| QVQLVESGGGLVQAGGSLRLSCAASGITFQYYAMGWYRQAPGKERELGAAITSSGVSTYYADSVKGRFTISRDNAKNTVYLQMNSLKPEDTAVYYCNTVVRGWSSSAYVYWGQGTQVTVSS | low polyreactivity |
| QVQLVESGGGLVQAGGSLRLSCAASGITFRAYVMGWYRQAPGKERELVAAINRRGGSTYYADSVKGRFTISRDNEKNTVYLQMNSLKPEDTAVYYCGNGDFDYWGQGTQVTVSS | high polyreactivity |
| QVQLVESGGGLVQAGGSLRLSCAASGITFRFYAMGWYRPAPGKEREFVAAISSRGGRTYYADSVKGRFTISRDNATNTVYLQMNSLKPEDTAVYYCAADFYYRTVATVTSVARYDYWGQGTQVTVSS | high polyreactivity |
| QVQLVESGGGLVQAGGSLRLSCAASGITFRGNAMGWYRQAPGKERELVAAISRRGGNTNYADSVKGRFTISRDNAKNTVYLQMNSLKPEDTAVYYCAADITTYRRGRYEYEYWGQGTQVTVSS | high polyreactivity |
| QVQLVESGGGLVQAGGSLRLSCAASGITFRGYVMGWYRQAPGKERELVADISRRGGSTYADSVKGRFTISRDNAKNTVYLQMNSLKPEDTAVYYCNAGWRPHNLNQVGYSSYGYYYWGQGTQVTVSS | high polyreactivity |
| QVQLVESGGGLVQAGGSLRLSCAASGITFRHYAMGWYRQAPGKEREFVAAITASGSSTYYADSVKGRFTISRDTAKNTVYLQMNSLKPEDTAVYYCAAAGYKYNSRGDYWGPGTQVTVSS | high polyreactivity |
